Assay results from publication doi:10.1101/2025.06.24.661325, “Structural and functional analysis of the Mycobacterium tuberculosis MmpS5L5 efflux pump presages a pathway to increased bedaquiline resistance” (bioRxiv, 2025).

B1: M. tuberculosis MmpS5 (natural protein)
chain: MIGTLKRAWIPLLILVVVAIAGFTVQRIRTFFGSEGILVTPKVFADDPEPFDPKVVEYEVSGSGSYVNINYLDLDAKPQRIDGAALPWSLTLKTTAPSAAPNILAQGDGTSITCRITVDGEVKDERTATGVDALTYCFVKSA
B2: M. smegmatis acyl carrier protein AcpM (MSMEG_4326) (natural protein)
chain: MAATQEEIIAGLAEIIEEVTGIEPSEVTPEKSFVDDLDIDSLSMVEIAVQTEDKYGVKIPDEDLAGLRTVGDVVAYIQKLEEENPEAAAALREKFAADQ

Legend:
[1] = biological target: T1, M. tuberculosis MmpL5 Δ494-688 with C-terminal GFP-FLAG tag (M. tuberculosis, UniProt P9WJV1 1-964, Δ494-688); assay: co-purification (anti-FLAG affinity, then SEC); conditions: partners not purified
T1 construct: also called MmpL5ΔCC; MmpL5 ΔCC

[2] = biological target: T1, M. tuberculosis MmpL5 Δ494-688 with …; assay: cryo-EM structure; conditions: both partners purified

Binder | binding result [1] | binding result [2]
B1 | binds | –
B2 | – | binds
